Sequences and labels used below:
B1: glmS ribozyme (parent)
chain: AUAAAAGCGCCAGAACUACAGAAAUGUAGUUGACGAGGAGGAGGUUUAUCGAAUUUUCGGCGGAUGCCUCCAAA

Details in all cases: with glucosamine-6-phosphate
In data set [1] the parent is B1. Description: self-cleavage kobs at 160 uM GlcN6P; higher = faster cleavage; RNA array. The method in brief: (§1)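 Glucosamine-6-phosphate, from 40 μM to 10 mM in HEPES/KCl/Mg(OAc)2 buffer, was flowed over sequenced MiSeq chips carrying barcoded ribozyme variants transcribed in situ by E. coli RNA polymerase. A hybridised Cy3 probe tracked the variants at 37 °C as tiles were imaged over ~14 h. kobs, kcat and KM were obtained by fitting normalised per-tile medians to exponential decays and then applying weighted Michaelis–Menten fits across concentrations.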

Data set [2] covers variants of B1. Description: self-cleavage kobs at 640 uM GlcN6P; higher = faster cleavage; RNA array. The method in brief: as §1
The variants in data set [3] derive from B1. Put plainly: self-cleavage kobs at 2500 uM GlcN6P; higher = faster cleavage; RNA array. The method in brief: as §1
Variants of B1 are the subject of data set [4]. Put plainly: self-cleavage kobs at 10000 uM GlcN6P; higher = faster cleavage; RNA array. The method in brief:
as §1

± gives the standard error. Fewer inactive variants are shown than the library holds.

This note sets out measurements from the supplement of paper PMC7125110.

For the variant AUAAAAGCGCCAGAACUACAGAAAUGUAGCUGACGAGGAGGAGGUUUAUUGAAUUUUCGGCGGAUGCCUGCAAA, in data set [1], the “self-cleavage kobs at 160 uM GlcN6P” value came to 5.6e-05 ± 1.7e-05 s⁻¹. Also, the “self-cleavage kobs at 640 uM GlcN6P” value in data set [2] worked out at 0.000134 ± 3.3e-05 s⁻¹. In data set [3], the “self-cleavage kobs at 2500 uM GlcN6P” value worked out at 0.000173 ± 3.3e-05 s⁻¹.
On to AUAAAAGCGCCAAAACUACAGAAAUGUAGUUGACGAGGAGGAGGUUUAUCGACUUUUCGGCGGAUGGCUCCAAA, for which the “self-cleavage kobs at 160 uM GlcN6P” value in data set [1] was below 1e-05 s⁻¹. Also, the “self-cleavage kobs at 640 uM GlcN6P” value in data set [2] is below 1e-05 s⁻¹. Moreover, in data set [4], the “self-cleavage kobs at 10000 uM GlcN6P” value was below 1e-05 s⁻¹.
As to AUAAAAGCGACAGAACUACAGAAAUGUAGUUGACGAGGUGGAGGUUUAUCGAAUUUUCGGCGGAUGCCGCCAAA, the “self-cleavage kobs at 160 uM GlcN6P” value in data set [1] is below 1e-05 s⁻¹. Further, the “self-cleavage kobs at 640 uM GlcN6P” value in data set [2] is below 1e-05 s⁻¹. In data set [3], the “self-cleavage kobs at 2500 uM GlcN6P” value was below 1e-05 s⁻¹.
AUAAAACCGCCAGAACUACAGAAAUGUAGUUGACGAGGAGGAGGUUUAUCGAAUUUUCGGUGGAUGCCUCCAAA: in data set [1], the “self-cleavage kobs at 160 uM GlcN6P” value was below 1e-05 s⁻¹. For the same variant, the “self-cleavage kobs at 640 uM GlcN6P” value in data set [2] is below 1e-05 s⁻¹. Besides, in data set [3], the “self-cleavage kobs at 2500 uM GlcN6P” value was below 1e-05 s⁻¹.
AUAAAAGCGCCAGAACUACAGAAAUGUAGUUCACGAGGAGGAGGUAUAUAGUAUUUUCGGCGGAUGCCUCCAAA: the “self-cleavage kobs at 160 uM GlcN6P” value in data set [1] is below 1e-05 s⁻¹. The “self-cleavage kobs at 640 uM GlcN6P” value in data set [2] was below 1e-05 s⁻¹. Also, in data set [3], the “self-cleavage kobs at 2500 uM GlcN6P” value is below 1e-05 s⁻¹.
Consider AUAAAAACGCCAGAACUACAGAAAUGUAGUCGACGAGGAGGAGGUUUAUCGAAUUUUCGUCGGAUGCCUCCAAA, for which, in data set [1], the “self-cleavage kobs at 160 uM GlcN6P” value was below 1e-05 s⁻¹. Besides, in data set [3], the “self-cleavage kobs at 2500 uM GlcN6P” value is below 1e-05 s⁻¹.
On to AUAAAAGCUCCAGAACUACAGAAAUGUAGUUGCCGAGGAGGAGGUUUAUCGAAUUUUCGGCGGAUGCCUCCAAA, for which the “self-cleavage kobs at 160 uM GlcN6P” value in data set [1] was below 1e-05 s⁻¹. The “self-cleavage kobs at 640 uM GlcN6P” value in data set [2] was below 1e-05 s⁻¹. The “self-cleavage kobs at 2500 uM GlcN6P” value in data set [3] is below 1e-05 s⁻¹. Further, the “self-cleavage kobs at 10000 uM GlcN6P” value in data set [4] is below 1e-05 s⁻¹.
In the case of AUAAAAGCGCCAGAACUACAGAAAUGUAGUUGACGAGGAGGAGGUUUAUCGAAUGUUCGGCGCAUGCCUCCAAA, in data set [1], the “self-cleavage kobs at 160 uM GlcN6P” value is below 1e-05 s⁻¹. In addition, the “self-cleavage kobs at 2500 uM GlcN6P” value in data set [3] was below 1e-05 s⁻¹.
For the variant AUAAAAGCGCCAGAACUACAGAAAUGUAGUUGACGCGAAGGAGCUUUAUCGAAUUUUCGGCGGAUGUGUCCAAA, in data set [1], the “self-cleavage kobs at 160 uM GlcN6P” value was below 1e-05 s⁻¹. Also, the “self-cleavage kobs at 640 uM GlcN6P” value in data set [2] was below 1e-05 s⁻¹. The “self-cleavage kobs at 2500 uM GlcN6P” value in data set [3] was below 1e-05 s⁻¹.
As to AUAAAAGCGCCAGAACUACAGAAAUGUAGUUGCCGAGGAGGAGGUUUAUCGAAUUUUCGGCGGAUGCCGCCAAA, in data set [1], the “self-cleavage kobs at 160 uM GlcN6P” value was below 1e-05 s⁻¹. Moreover, the “self-cleavage kobs at 2500 uM GlcN6P” value in data set [3] is below 1e-05 s⁻¹. Moreover, in data set [4], the “self-cleavage kobs at 10000 uM GlcN6P” value is below 1e-05 s⁻¹.
As for AUAAAAGCGGCAGAACUACAGAAAUGUAGUUGACGCGGAGGAGGUUUAUCGAAUUUUCGGCGGAUGCCUCCAAA, in data set [1], the “self-cleavage kobs at 160 uM GlcN6P” value is below 1e-05 s⁻¹. In data set [2], the “self-cleavage kobs at 640 uM GlcN6P” value is below 1e-05 s⁻¹. Moreover, the “self-cleavage kobs at 2500 uM GlcN6P” value in data set [3] is below 1e-05 s⁻¹.
AUAAAAGCGCCAGAACUACAGAAAUGUAGUUGACGAGGAGGAGGUUUAUUGAAUUUUCGGAGGAUGCCUCCAAA: the “self-cleavage kobs at 160 uM GlcN6P” value in data set [1] is 9.85e-05 ± 4.8e-05 s⁻¹. Moreover, in data set [2], the “self-cleavage kobs at 640 uM GlcN6P” value was found to be 2.67e-05 ± 1.1e-05 s⁻¹. Besides, the “self-cleavage kobs at 2500 uM GlcN6P” value in data set [3] worked out at 3.11e-05 ± 1e-05 s⁻¹.
Consider AUAAAAGCAACAGAACUACAGAAAUGUAGUUGACGAGGAGGAGGUUUAUCGAAUUUUCGGCGGAUGCCUCCAAA, for which, in data set [1], the “self-cleavage kobs at 160 uM GlcN6P” value was below 1e-05 s⁻¹. In data set [2], the “self-cleavage kobs at 640 uM GlcN6P” value is below 1e-05 s⁻¹. Further, the “self-cleavage kobs at 2500 uM GlcN6P” value in data set [3] is below 1e-05 s⁻¹. In data set [4], the “self-cleavage kobs at 10000 uM GlcN6P” value was below 1e-05 s⁻¹.
